The labels stand for the following.
B1: Mina53 (MYC-induced nuclear antigen), aa 26-465, wild type (enzyme)
chain: AAGGPSALNFDSPSSLFESLISPIKTETFFKEFWEQKPLLIQRDDPALATYYGSLFKLTDLKSLCSRGMYYGRDVNVCRCVNGKKKVLNKDGKAHFLQLRKDFDQKRATIQFHQPQRFKDELWRIQEKLECYFGSLVGSNVYITPAGSQGLPPHYDDVEVFILQLEGEKHWRLYHPTVPLAREYSVEAEERIGRPVHEFMLKPGDLLYFPRGTIHQADTPAGLAHSTHVTISTYQNNSWGDFLLDTISGLVFDTAKEDVELRTGIPRQLLLQVESTTVATRRLSGFLRTLADRLEGTKELLSSDMKKDFIMHRLPPYSAGDGAELSTPGGKLPRLDSVVRLQFKDHIVLTVLPDQDQSDEAQEKMVYIYHSLKNSRETHMMGNEEETEFHGLRFPLSHLDALKQIWNSPAISVKDLKLTTDEEKESLVLSLWTECLIQVV
B2: NO66 (Nucleolar protein 66), aa 183-641, wild type (enzyme)
chain: SPLRRVLAELNRIPSSRRRAARLFEWLIAPMPPDHFYRRLWEREAVLVRRQDHTYYQGLFSTADLDSMLRNEEVQFGQHLDAARYINGRRETLNPPGRALPAAAWSLYQAGCSLRLLCPQAFSTTVWQFLAVLQEQFGSMAGSNVYLTPPNSQGFAPHYDDIEAFVLQLEGRKLWRVYRPRVPTEELALTSSPNFSQDDLGEPVLQTVLEPGDLLYFPRGFIHQAECQDGVHSLHLTLSTYQRNTWGDFLEAILPLAVQAAMEENVEFRRGLPRDFMDYMGAQHSDSKDPRRTAFMEKVRVLVARLGHFAPVDAVADQRAKDFIHDSLPPVLTDRERALSVYGLPIRWEAGEPVNVGAQLTTETEVHMLQDGIARLVGEGGHLFLYYTVENSRVYHLEEPKCLEIYPQQADAMELLLGSYPEFVRVGDLPCDSVEDQLSLATTLYDKGLLLTKMPLALN
B3: ycfD from Escherichia coli, full length, wild type (enzyme)
chain: MEYQLTLNWPDFLERHWQKRPVVLKRGFNNFIDPISPDELAGLAMESEVDSRLVSHQDGKWQVSHGPFESYDHLGETNWSLLVQAVNHWHEPTAALMRPFRELPDWRIDDLMISFSVPGGGVGPHLDQYDVFIIQGTGRRRWRVGEKLQMKQHCPHPDLLQVDPFEAIIDEELEPGDILYIPPGFPHEGYALENAMNYSVGFRAPNTRELISGFADYVLQRELGGNYYSDPDVPPRAHPADVLPQEMDKLREMMLELINQPEHFKQWFGEFISQSRHELDIAPPEPPYQPDEIYDALKQGEVLVRLGGLRVLRIGDDVYANGEKIDSPHRPALDALASNIALTAENFGDALEDPSFLAMLAALVNSGYWFFEG

Data set [1] concerns the molecule itself. Briefly: crystal structure.
Data set [2] has as its target B2. Put plainly: cross-linking.
For data set [3], the target named is L299C/C300S NO66 (aa 183-641) (human, UniProt Q9H6W3 183-641, L299C | C300S). Put plainly: cross-linking.
The target of data set [4] is Y209C Mina53 (aa 26-465) (human, UniProt Q8IUF8 26-465, Y209C). Briefly: cross-linking.

Consider B1, for which the binding result in data set [1] was “binds”. The same measure, in the same setting: to B2 belongs “binds”.

For the molecule NPVEHPFGGGNHQHICKPST [rpL8 (205-224) G220C peptide], the binding result in data set [2] and in data set [3] was “binds” in each case.

Turning to RGNAGCLHHHRINFDKYHP [rpL27a (32-50) G37C peptide], the binding result in data set [4] is recorded as “binds”. On to B3, for which, in data set [1], the binding result is “binds”.

The record behind these values is PMC4066111 (Nature, 2014).
